Reference: paper PMC10828496 (Cell Discovery, 2024)
Positions count from the first letter of the chain named. In names and notes the source's numbering stands. Each block holds one molecule with its values, some of them ahead of it.

Legend:
[1] = biological target: T1, METTL15^70–407 (Homo sapiens, UniProt A6NJ78, D119A); experiment: isothermal titration calorimetry; format: binding
T1 construct: residues 70-407; N-terminal SUMO tag cleaved with ULP1; E. coli Rosetta (DE3)
T1 sequence (A6NJ78 70-407 D119A): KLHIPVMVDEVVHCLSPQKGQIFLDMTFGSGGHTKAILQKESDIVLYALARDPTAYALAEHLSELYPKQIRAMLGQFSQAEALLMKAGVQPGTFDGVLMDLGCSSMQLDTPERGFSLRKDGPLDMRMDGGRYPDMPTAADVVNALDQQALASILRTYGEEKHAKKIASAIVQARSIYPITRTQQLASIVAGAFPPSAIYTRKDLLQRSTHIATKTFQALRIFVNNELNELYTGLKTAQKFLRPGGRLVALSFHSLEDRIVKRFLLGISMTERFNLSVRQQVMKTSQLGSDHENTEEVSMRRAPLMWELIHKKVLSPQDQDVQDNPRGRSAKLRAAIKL

[2] = biological target: T2, METTL15^70–407 (Homo sapiens, UniProt A6NJ78); experiment: isothermal titration calorimetry; format: binding
T2 construct: residues 70-407; N-terminal SUMO tag cleaved with ULP1; E. coli Rosetta (DE3)
T2 sequence (A6NJ78 70-407): T1 sequence (A6NJ78 70-407 D119A) with A50D

[3] = biological target: T3, METTL15 WT (Homo sapiens, UniProt A6NJ78 70-407); experiment: fluorescence polarization; FP: dilution buffer B (50 mM Na2HPO4, 150 mM NaCl, pH 7.0), 20 C, 15 min incubation, 80 nM FAM-RNA stock mixed 1:1 (40 nM final); 1:1 binding model; details: protein: recombinant, tags: SUMO tag removed (ULP1), label: 5'-FAM
T3 sequence: T1 sequence (A6NJ78 70-407 D119A) with A50D

[4] = biological target: METTL15^70–407 (human METTL15, residues 70–407), wild type (human, UniProt A6NJ78 70-407); experiment: ITC; Microcal PEAQ-ITC, 20 °C, buffer B (50 mM Na2HPO4, 150 mM NaCl, pH 7.0); hsRBFA 600 μM and METTL15 40 μM; single binding site model; details: both partners purified
[5] = biological target: METTL15^70–407 D209A (human, UniProt A6NJ78 70-407, D209A); experiment: as above; details: both partners purified
[6] = biological target: METTL15^70–407 N212A (human, UniProt A6NJ78 70-407, N212A); experiment: as above; details: both partners purified
[7] = biological target: T4, METTL15 WT;hsRBFA C-terminal helix (Homo sapiens;Homo sapiens, UniProt A6NJ78;Q8N0V3 70-407;226-260, |); experiment: fluorescence polarization; +hsRBFA 226-260; FP: dilution buffer B (50 mM Na2HPO4, 150 mM NaCl, pH 7.0), 20 C, 15 min incubation, 80 nM FAM-RNA stock mixed 1:1 (40 nM final); 1:1 binding model; details: protein: recombinant;recombinant, tags: SUMO tag removed (ULP1);GST tag removed (TEV), copies: 1;1, label: 5'-FAM
T4 sequence 1: T1 sequence (A6NJ78 70-407 D119A) with A50D
T4 sequence 2: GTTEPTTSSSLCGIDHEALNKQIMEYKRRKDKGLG

[8] = biological target: T5, METTL15 H231A/K234A/F262A (Homo sapiens, UniProt A6NJ78 70-407, H231A;K234A;F262A); experiment: fluorescence polarization; FP: dilution buffer B (50 mM Na2HPO4, 150 mM NaCl, pH 7.0), 20 C, 15 min incubation, 80 nM FAM-RNA stock mixed 1:1 (40 nM final); 1:1 binding model; details: protein: recombinant; tags: SUMO tag removed (ULP1); label: 5'-FAM; hairpin
T5 sequence: T1 sequence (A6NJ78 70-407 D119A) with A50D, H162A, K165A, F193A

[9] = biological target: T6, METTL15 K380A/K381A (Homo sapiens, UniProt A6NJ78 70-407, K380A;K381A); experiment: as above; details: protein: recombinant; tags: SUMO tag removed (ULP1); label: 5'-FAM; hairpin
T6 sequence: T1 sequence (A6NJ78 70-407 D119A) with A50D, K311A, K312A

[10] = biological target: T7, METTL15 F262A/P263A/K270A (Homo sapiens, UniProt A6NJ78 70-407, F262A;P263A;R270A); experiment: as above; details: protein: recombinant; tags: SUMO tag removed (ULP1); label: 5'-FAM; hairpin
T7 sequence: T1 sequence (A6NJ78 70-407 D119A) with A50D, F193A, P194A, R201A

[11] = biological target: T8, METTL15 R327A/K330A/R331A (Homo sapiens, UniProt A6NJ78 70-407, R327A;K330A;R331A); experiment: as above; details: protein: recombinant; tags: SUMO tag removed (ULP1); label: 5'-FAM; hairpin
T8 sequence: T1 sequence (A6NJ78 70-407 D119A) with A50D, R258A, K261A, R262A

B1: 5'-FAM-h44_dsRNA4 (structured_RNA)
RNA: CGACACCGCCCGUAACGGUGUCG
- Kd ([3]; hairpin): 2330 ± 130 nM

B2: hsRBFA^226–260 Q247A (domain or fragment, human, UniProt Q8N0V3 226-260, looked up)
chain: T4 sequence 2 with Q22A
- Kd [4]: 410 nM
- dH [4]: -11.5 ± 0.2 kcal/mol

B4: hsRBFA^226–260 N245A (domain or fragment, human, UniProt Q8N0V3 226-260, looked up)
chain: T4 sequence 2 with N20A
- Kd [4]: 610 nM
- dH [4]: -10.6 ± 0.2 kcal/mol

B6: 5'-FAM-h44_dsRNA2 (structured_RNA)
RNA: CGACCGGAAGCGGUCG
- Kd ([3]; hairpin): 770 ± 50 nM

B7: 5'-FAM-h44_ssRNA3 (ssRNA)
RNA: CACACCGCCCGUCAC
- Kd [3]: 2200 ± 330 nM
- Kd [7]: 1760 ± 160 nM

B8: 5'-FAM-polyA13 (ssRNA)
RNA: AAAAAAAAAAAAA
- Kd [3]: 610 ± 110 nM

B9: 5'-FAM-h44_dsRNA1 (structured_RNA)
RNA: CGACCGCCCGUAACGGUCG
- binding result [8]: no binding
- Kd [9]: 2680 ± 290 nM
- binding result [10]: no binding
- Kd ([3]; hairpin): 1100 ± 90 nM
- Kd [11]: 1030 ± 150 nM
- Kd ([7]; hairpin): 1150 ± 80 nM

More lines, now with the values ahead:

- Kd [1]: 17300 ± 310 nM
- Kd [2]: 2990 ± 360 nM
Molecule: C[S+](CC[C@H](N)C(=O)O)C[C@H]1O[C@@H](n2cnc3c(N)ncnc32)[C@H](O)[C@@H]1O (some centres unmarked) [SAM]

- Kd [4]: 19600 nM
- dH [4]: -17.2 ± 3.1 kcal/mol
B3: hsRBFA^226–260 K252A (domain or fragment, human, UniProt Q8N0V3 226-260, looked up)
chain: T4 sequence 2 with K27A

- Kd [5]: 7940 nM
- dH [5]: -7.43 ± 0.32 kcal/mol
- Kd [6]: 1120 nM
- dH [6]: -9.5 ± 0.34 kcal/mol
B5: hsRBFA^226–260 (human hsRBFA, residues 226–260), wild type (domain or fragment, UniProt Q8N0V3 226-260, looked up)
chain: T4 sequence 2
